From patent US20240083945A1 (Bicycle, published 2024)

Target: T1, COVID-19 nucleocapsid protein (N-protein) (severe acute respiratory syndrome …, UniProt P0DTC9 1-419)
T1 construct: also called nucleocapsid protein (N-protein) of severe acute respiratory syndrome coronavirus 2 (SARS-CoV-2)
Experiment: bio-layer interferometry (BLI)

Row | Binder | Kd [nM]
1 | ACDGNFCDNRYVTQRCA (Ci, Cii and Ciii cysteines covalently bound to TBMT scaffold) [BCY17635] | 40300
2 | RRAVCTTDFCNNRYVVNRCA (Ci, Cii and Ciii cysteines covalently bound to TBMT scaffold) [BCY18976] | 19.7
3 | ACKRGYCPVTDTFCA (Ci, Cii and Ciii cysteines covalently bound to TBMT scaffold) [BCY17640] | 43000
4 | ACTTDFCNNRYVVNRCA (Ci, Cii and Ciii cysteines covalently bound to TBMT scaffold) [BCY17628] | 16.6
5 | ACWTDFCNNRYVVNRCA (N-terminal acetyl (Ac); Ci, Cii and Ciii cysteines covalently bound to TBMT scaffold) [BCY20264] | 10.1
6 | RRAVCTTDFCNNRYVVNRCDDYH (Ci, Cii and Ciii cysteines covalently bound to TBMT scaffold) [BCY18978] | 40.2
7 | EKQYCTTDFCNNRYVVNRCA (Ci, Cii and Ciii cysteines covalently bound to TBMT scaffold) [BCY18977] | 22.3
8 | ACQYTFCENRYKICA (Ci, Cii and Ciii cysteines covalently bound to TATA scaffold) [BCY16564] | 2080
9 | ACTTDFCNDRYIINPCA (Ci, Cii and Ciii cysteines covalently bound to TBMT scaffold) [BCY17631] | 321
10 | ACTTDFCNNRYVVNQCQEQS (Ci, Cii and Ciii cysteines covalently bound to TBMT scaffold) [BCY18983] | 2450
11 | AYTDCTTDFCNNRYVVNRCA (Ci, Cii and Ciii cysteines covalently bound to TBMT scaffold) [BCY18974] | 20.6
12 | ACYVGYCPATDTFCA (Ci, Cii and Ciii cysteines covalently bound to TBMT scaffold) [BCY17638] | 805
13 | ACTKGYCPLTDMFCA (Ci, Cii and Ciii cysteines covalently bound to TBMT scaffold) [BCY17639] | 1240
14 | ACTTDFCNNRYVVNRCA (N-terminal acetyl (Ac); Ci, Cii and Ciii cysteines covalently bound to TBMT scaffold) [BCY20263] | 11.8
15 | MPTSCVTDFCNNRYVVNRCA (Ci, Cii and Ciii cysteines covalently bound to TBMT scaffold) [BCY18984] | 72.8
16 | ACIVGYCPATDDFCA (Ci, Cii and Ciii cysteines covalently bound to TBMT scaffold) [BCY16571] | 797
17 | LSQPCLTDFCNNRYVVNRCA (Ci, Cii and Ciii cysteines covalently bound to TBMT scaffold) [BCY18991] | 10.6
18 | LARDCGTDFCNNRYVVNRCA (Ci, Cii and Ciii cysteines covalently bound to TBMT scaffold) [BCY18989] | 26.5
19 | ACFRGYCPQTNLFCA (Ci, Cii and Ciii cysteines covalently bound to TBMT scaffold) [BCY16573] | 728
20 | ACTTDFCNDRYIVNSCA (Ci, Cii and Ciii cysteines covalently bound to TBMT scaffold) [BCY17630] | 331
21 | ACTTDFCNNRYVVNRCGSDN (Ci, Cii and Ciii cysteines covalently bound to TBMT scaffold) [BCY18971] | 27.9
22 | ACEGDFCDGRYIVNTCA (Ci, Cii and Ciii cysteines covalently bound to TBMT scaffold) [BCY17627] | 36.9
23 | KTEYCETDFCNNRYVVNRCA (Ci, Cii and Ciii cysteines covalently bound to TBMT scaffold) [BCY18988] | 29.1
24 | ACHTPDWSDFCAGRYCA (Ci, Cii and Ciii cysteines covalently bound to TBCU scaffold) [BCY16581] | 8040
25 | ACNAWFCDGRFYMCA (Ci, Cii and Ciii cysteines covalently bound to TBCU scaffold) [BCY16569] | 4270
26 | ACSIGYCPVTDTFCA (Ci, Cii and Ciii cysteines covalently bound to TBMT scaffold) [BCY17641] | 1740

Row | Binder | Kd [nM]
27 | ACPVRIEYPICDTSICA (Ci, Cii and Ciii cysteines covalently bound to TBMT scaffold) [BCY16582] | 1790
28 | ACSEGWCFRENRYQVCA (Ci, Cii and Ciii cysteines covalently bound to TATA scaffold) [BCY16565] | 1340
29 | ACWTDFCNNRYIVNTCA (Ci, Cii and Ciii cysteines covalently bound to TBMT scaffold) [BCY17624] | 56.3
30 | LEQICVTDFCNNRYVVNRCA (Ci, Cii and Ciii cysteines covalently bound to TBMT scaffold) [BCY18985] | 28.1
31 | ACTTDFCNNRYVVNQCSYPR (Ci, Cii and Ciii cysteines covalently bound to TBMT scaffold) [BCY18973] | 225
32 | ACTSYFCNNRFTLNTCA (Ci, Cii and Ciii cysteines covalently bound to TBMT scaffold) [BCY16566] | 1110
33 | HSLICVTDFCNNRYVVNRCMHSQ (Ci, Cii and Ciii cysteines covalently bound to TBMT scaffold) [BCY18987] | 9.7
34 | ACSVGYCPLTNTFCA (Ci, Cii and Ciii cysteines covalently bound to TBMT scaffold) [BCY16572] | 1660
35 | QYESCTTDFCNNRYVVNRCGSDN (Ci, Cii and Ciii cysteines covalently bound to TBMT scaffold) [BCY18979] | 108
36 | ACDGNFCDNRYIVNTCA (Ci, Cii and Ciii cysteines covalently bound to TBMT scaffold) [BCY17626] | 263
37 | HSLICVTDFCNNRYVVNRCA (Ci, Cii and Ciii cysteines covalently bound to TBMT scaffold) [BCY18986] | 10.6
38 | ACTTDFCNNRYVVNRCDDYH (Ci, Cii and Ciii cysteines covalently bound to TBMT scaffold) [BCY18972] | 22.2
39 | ACSRGYCPRTNTFCA (Ci, Cii and Ciii cysteines covalently bound to TBMT scaffold) [BCY17637] | 1050
40 | ACNGDFCNNRYIVNTCA (Ci, Cii and Ciii cysteines covalently bound to TBMT scaffold) [BCY17625] | 27.6
41 | ACTTDFCNNRYVVNLCQNKS (Ci, Cii and Ciii cysteines covalently bound to TBMT scaffold) [BCY18982] | 79.7
42 | ACDGNFCDNRYVVNRCA (Ci, Cii and Ciii cysteines covalently bound to TBMT scaffold) [BCY17636] | 1730
43 | ACTTDFCNNRYVVNRCEALE (Ci, Cii and Ciii cysteines covalently bound to TBMT scaffold) [BCY18970] | 29.3
44 | ACTTDFCNDRYITELCA (Ci, Cii and Ciii cysteines covalently bound to TBMT scaffold) [BCY17632] | 2600
45 | ACMQNPCRWVNIPCA (N-terminal acetyl (Ac); Ci, Cii and Ciii cysteines covalently bound to TATA scaffold) [BCY20266] | 9.7
46 | ACTTDFCNSRYIVNTCA (Ci, Cii and Ciii cysteines covalently bound to TBMT scaffold) [BCY16570] | 442
47 | ACNTWCMDNDRIYFNCA (Ci, Cii and Ciii cysteines covalently bound to TBMT scaffold) [BCY16574] | 1030
48 | QYESCTTDFCNNRYVVNRCA (Ci, Cii and Ciii cysteines covalently bound to TBMT scaffold) [BCY18975] | 63.8
49 | ACKTYCFMENRYSLSCA (Ci, Cii and Ciii cysteines covalently bound to TBMT scaffold) [BCY16563] | 1540
50 | ACTTDFCNNRYVTQRCA (Ci, Cii and Ciii cysteines covalently bound to TBMT scaffold) [BCY17629] | 41.7
51 | ACWTDFCNNRYVTQRCA (Ci, Cii and Ciii cysteines covalently bound to TBMT scaffold) [BCY17634] | 64.2
52 | ACPQTYCFINNRYCA (Ci, Cii and Ciii cysteines covalently bound to TBMT scaffold) [BCY16567] | 1010
